The labels stand for the following.
T1: human BCMA on cells (CHO-hBCMA clone 2C2; NCI-H929; RPMI-8226) (human, UniProt Q02223 1-184)
T1 sequence (looked up): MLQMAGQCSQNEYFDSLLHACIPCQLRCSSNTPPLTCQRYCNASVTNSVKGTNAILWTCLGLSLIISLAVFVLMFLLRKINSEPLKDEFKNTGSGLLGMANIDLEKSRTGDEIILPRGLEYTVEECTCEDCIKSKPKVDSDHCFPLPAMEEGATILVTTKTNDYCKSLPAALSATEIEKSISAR

B1: h29A11-CD3 (bispecific antibody, V domains shown)
VH 1: QVQLVQSGSELKKPGASVKVSCKASGYIFTNFGMNWVREAPGQGLEWMGWINTYTGEQIYADDFKGRFAFSLDTSASTAYLQISSLKAEDTAVYFCARGEIYYGYDVGFVYWGQGTLVTVSS
VL 1: DIVLTQSPASLAVSPGQRATITCRASKSVSTSGYSYMHWYQKKPGQPPKLLIYLASNLESGVPARFSGSGSGTDFTLTINPVEANDTANYYCQHSRELPWTFGQGTKVEIK
VH 2: EVQLVESGGGLVQPGGSLRLSCAASGFTFNTYAMNWVRKAPGKGLEWVGRIRSKYNNYATYYADSVKDRFTISRDDSKNSLYLQMNSLKTEDTAVYYCVRHGNFGNSYVSWFAYWGQGTLVTVSS
VL 2: QAVVTQEPSLTVSPGGTVTLTCRSSTGAVTTSNYANWVQEKPGQAPRGLIGGTNKRAPWTPARFSGSLLGGKAALTITGAQAEDEAEYYCVLWYSNLWVFGGGTKLTVL
B2: h34G2-CD3 (bispecific antibody, V domains shown)
VH 1: B1 VH 1 with I28T, F32Y, Q58R
VL 1: B1 VL 1
VH 2: B1 VH 2
VL 2: B1 VL 2
B3: h15H10-CD3 (bispecific antibody, V domains shown)
VH 1: B1 VH 1 with I28T, E57D, Q58L, A61G, V110A
VL 1: B1 VL 1
VH 2: B1 VH 2
VL 2: B1 VL 2

Where a chain is given by its changes, count along the chain named.
Wherever Upregulation of CD25 (%), CD4+T is given: test concentration or dose not given here.
Wherever Upregulation of CD25 (%), CD8+T is given: test concentration or dose not given here.
Wherever Upregulation of CD69 (%), CD4+T is given: test concentration or dose not given here.
Wherever Upregulation of CD69 (%), CD8+T is given: test concentration or dose not given here.

In the first assay the target is T1, human BCMA on cells (CHO-hBCMA clone …). Description: cell-based or functional assay.
As to B1, the “Killing EC50 (TDCC, LDH release; PBMC + RPMI-8226)” value (from here on “Killing EC50”) was 0.69 nM.

Take B2: the “Killing EC50” value was determined as 1.02 nM.

With B3, the “Killing EC50” value came to 1.83 nM.

In the next assay the target is human CD3 on T cells (Jurkat cells; human peripheral blood CD4+ and CD8+ T cells) (human, UniProt P07766 23-207). Description: cell-based or functional assay.
Chain of human CD3 on T cells (Jurkat cells; human peripheral blood CD4+ and CD8+ T cells) (P07766 23-207): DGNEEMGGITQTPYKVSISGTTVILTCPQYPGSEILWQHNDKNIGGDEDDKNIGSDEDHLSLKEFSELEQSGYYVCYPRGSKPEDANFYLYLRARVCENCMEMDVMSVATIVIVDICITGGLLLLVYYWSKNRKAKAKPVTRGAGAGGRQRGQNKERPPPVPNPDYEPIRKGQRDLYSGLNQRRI
Take B1: the “Upregulation of CD25 (%), CD4+T” value came to 33%; the “Upregulation of CD25 (%), CD8+T” value came to 36%; the “Upregulation of CD25 EC50, CD4+T” value was 0.45 nM; the “Upregulation of CD25 EC50, CD8+T” value stood at 3.85 nM. Besides, the “Upregulation of CD69 (%), CD4+T” value was 47%; the “Upregulation of CD69 (%), CD8+T” value stood at 58%; the “Upregulation of CD69 EC50, CD4+T” value was 0.37 nM; the “Upregulation of CD69 EC50, CD8+T” value was 3.39 nM.

Consider B2, for which the “Upregulation of CD25 (%), CD4+T” value came to 27%; the “Upregulation of CD25 (%), CD8+T” value came out at 33%; the “Upregulation of CD25 EC50, CD4+T” value worked out at 1.18 nM; the “Upregulation of CD25 EC50, CD8+T” value turned out to be 1.28 nM. The “Upregulation of CD69 (%), CD4+T” value was 42%; the “Upregulation of CD69 (%), CD8+T” value was determined as 55%; the “Upregulation of CD69 EC50, CD4+T” value was determined as 0.68 nM; the “Upregulation of CD69 EC50, CD8+T” value was determined as 0.57 nM.

For the molecule B3, the “Upregulation of CD25 (%), CD4+T” value is 36%; the “Upregulation of CD25 (%), CD8+T” value came out at 41%; the “Upregulation of CD25 EC50, CD4+T” value turned out to be 3.85 nM; the “Upregulation of CD25 EC50, CD8+T” value came to 2.64 nM. The “Upregulation of CD69 (%), CD4+T” value is 58%; the “Upregulation of CD69 (%), CD8+T” value was 62%; the “Upregulation of CD69 EC50, CD4+T” value is 3.39 nM; the “Upregulation of CD69 EC50, CD8+T” value was found to be 0.94 nM.

Source of the values: patent US20250277045A1 (KEYMED BIOSCIENCES, published 2025).
